Positions count from the first letter of the chain named.
T1: human IL-11Rα (form used in the assay not stated) (human, UniProt Q14626 23-363, limits assumed)
T1 construct: also called hIL-11R; hIL-11Rα
T1 sequence: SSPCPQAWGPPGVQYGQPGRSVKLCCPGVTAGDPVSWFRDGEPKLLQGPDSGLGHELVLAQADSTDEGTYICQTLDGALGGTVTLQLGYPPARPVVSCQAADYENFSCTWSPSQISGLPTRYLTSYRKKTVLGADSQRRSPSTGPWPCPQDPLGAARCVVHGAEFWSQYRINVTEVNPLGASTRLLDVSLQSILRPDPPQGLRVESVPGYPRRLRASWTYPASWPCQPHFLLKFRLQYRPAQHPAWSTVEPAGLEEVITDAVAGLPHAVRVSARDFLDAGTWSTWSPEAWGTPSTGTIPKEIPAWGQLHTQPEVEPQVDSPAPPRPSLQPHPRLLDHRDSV

T2: human IL-11Rα on transfected cells (human, UniProt Q14626 23-422)
T2 sequence: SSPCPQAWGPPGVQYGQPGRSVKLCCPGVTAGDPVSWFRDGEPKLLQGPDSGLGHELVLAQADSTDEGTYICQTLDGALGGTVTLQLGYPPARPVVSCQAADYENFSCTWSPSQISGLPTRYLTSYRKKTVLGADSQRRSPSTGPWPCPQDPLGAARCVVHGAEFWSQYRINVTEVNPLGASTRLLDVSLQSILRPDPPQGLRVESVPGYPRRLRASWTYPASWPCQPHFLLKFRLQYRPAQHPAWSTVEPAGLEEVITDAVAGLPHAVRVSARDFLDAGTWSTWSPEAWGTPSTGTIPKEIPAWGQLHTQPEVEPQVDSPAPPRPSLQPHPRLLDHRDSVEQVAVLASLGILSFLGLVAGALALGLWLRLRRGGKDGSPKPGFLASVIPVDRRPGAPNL

B1: hu8E2-TS-224 (antibody, V domains shown)
VH: EVQLLESGGGLVQPGGSLRLSCAASGFTFSWYSMTWVRQAPGKGLEWVSSIVPSGGHTQYADSVKGRFTISRDNSKNTLYLQMNSLRAEDTAVYYCAKGPGWGSFWTWGRGTLVTVSS
VL: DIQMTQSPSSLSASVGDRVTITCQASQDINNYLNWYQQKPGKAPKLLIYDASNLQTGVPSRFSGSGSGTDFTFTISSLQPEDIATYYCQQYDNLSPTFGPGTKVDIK
B2: hu8E2-TS-305 (antibody, V domains shown)
VH: B1 VH with W106D, T107L
VL: DIQMTQSPSSLSASVGDRVTITCQASQDVGIYVEWYQQKPGKAPKLLIYDASNLQTGVPSRFSGSGSGTDFTFTISSLQPEDIATYYCQQYDNLSPTFGPGTKVDIK
B3: hu8E2-TS-322 (antibody, V domains shown)
VH: B1 VH with W106D, T107L
VL: B2 VL with G30H, I31H, V33M
B4: hu8E2-TS-312 (antibody, V domains shown)
VH: B1 VH with W106D, T107L
VL: B2 VL with V29I, I31Q
B5: hu8E2-TS-306 (antibody, V domains shown)
VH: B1 VH with W106D, T107L
VL: B2 VL with G30D, I31K
B6: hu8E2-TS-303 (antibody, V domains shown)
VH: B1 VH with W106D, T107L
VL: B2 VL with G30D, I31Y, Y32W
B7: hu8E2-TS-313 (antibody, V domains shown)
VH: B1 VH with W106D, T107L
VL: B2 VL with G30S, I31G
B8: hu8E2-TS-221 (antibody, V domains shown)
VH: B1 VH with T107Y
VL: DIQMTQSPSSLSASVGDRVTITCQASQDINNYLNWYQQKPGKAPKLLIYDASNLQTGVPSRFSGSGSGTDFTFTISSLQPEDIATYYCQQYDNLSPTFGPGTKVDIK
B9: hu8E2-TS-222 (antibody, V domains shown)
VH: B1 VH with S104T, W106A, T107Y
VL: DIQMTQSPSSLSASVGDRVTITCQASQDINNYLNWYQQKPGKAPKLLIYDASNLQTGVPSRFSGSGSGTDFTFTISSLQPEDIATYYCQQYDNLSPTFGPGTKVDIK
B10: hu8E2-TS-311 (antibody, V domains shown)
VH: B1 VH with W106D, T107L
VL: B2 VL with G30S, I31Q, V33I
B11: hu8E2-TS-310 (antibody, V domains shown)
VH: B1 VH with W106D, T107L
VL: B2 VL with G30A, I31M, V33I
B12: hu8E2-TS-307 (antibody, V domains shown)
VH: B1 VH with W106D, T107L
VL: B2 VL with G30S, I31M
B13: hu8E2-TS-213 (antibody, V domains shown)
VH: B1 VH with S104Q, W106A, T107V
VL: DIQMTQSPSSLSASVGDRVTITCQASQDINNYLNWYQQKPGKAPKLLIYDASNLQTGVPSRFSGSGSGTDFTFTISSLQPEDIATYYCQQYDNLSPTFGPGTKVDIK

biological target: T1, human IL-11Rα (form used in the assay …); test: Biacore, pH 8.5, 37°C

**Q.** With B1 as the binder, how does the Kd read?
**A.** The Kd was 1.91 nM.

**Q.** Which Kd does the source give for B2 here?
**A.** The Kd was 1.58 nM.

**Q.** For B3, which Kd is on record?
**A.** The Kd was 6.01 nM.

**Q.** For B4, which Kd is on record?
**A.** Its Kd is 1.76 nM.

**Q.** With B5 as the binder, how does the Kd read?
**A.** The Kd was 1.07 nM.

**Q.** B6 was tested. Which Kd did it give?
**A.** The Kd was 4.09 nM.

**Q.** With B7 as the binder, how does the Kd read?
**A.** The Kd was 5.56 nM.

**Q.** Which Kd does the source give for B8 here?
**A.** The Kd was 0.634 nM.

**Q.** B9 was tested. Which Kd did it give?
**A.** The Kd was 1.91 nM.

**Q.** Which Kd does the source give for B10 here?
**A.** The Kd was 1.69 nM.

**Q.** B11 was tested. Which Kd did it give?
**A.** Its Kd is 2.09 nM.

**Q.** With B12 as the binder, how does the Kd read?
**A.** The Kd was 1.32 nM.

biological target: T2, human IL-11Rα on transfected cells; test: cell-based or functional assay

**Q.** For B13, which “Fold increase in potency relative to 8E2” value is on record?
**A.** Its value is 1.2 fold.

**Q.** What about the “IC50” value of the same binder?
**A.** Its value is 0.51 µg/mL.

**Q.** With B1 as the binder, how does the “Fold increase in potency relative to 8E2” value read?
**A.** The value was 1.2 fold.

**Q.** What about the “IC50” value of the same binder?
**A.** The value was 0.39 µg/mL.

**Q.** How did the “Fold increase in potency relative to 8E2” value turn out when B2 was run?
**A.** The value was 2.1 fold.

**Q.** And the “IC50” value?
**A.** The value was 0.23 µg/mL.

**Q.** Which “Fold increase in potency relative to 8E2” value does the source give for B3 here?
**A.** The value was 1.1 fold.

**Q.** And the “IC50” value?
**A.** The value was 0.33 µg/mL.

**Q.** How did the “Fold increase in potency relative to 8E2” value turn out when B4 was run?
**A.** The value was 1.2 fold.

**Q.** And the “IC50” value?
**A.** The value was 0.29 µg/mL.

**Q.** With B5 as the binder, how does the “Fold increase in potency relative to 8E2” value read?
**A.** Its value is 3.3 fold.

**Q.** And the “IC50” value?
**A.** The value was 0.15 µg/mL.

**Q.** With B6 as the binder, how does the “Fold increase in potency relative to 8E2” value read?
**A.** The value was 1.4 fold.

**Q.** And the “IC50” value?
**A.** Its value is 0.35 µg/mL.

**Q.** For B7, which “Fold increase in potency relative to 8E2” value is on record?
**A.** Its value is 0.7 fold.

**Q.** What about the “IC50” value of the same binder?
**A.** Its value is 0.51 µg/mL.

**Q.** B8 was tested. Which “Fold increase in potency relative to 8E2” value did it give?
**A.** The value was 2.6 fold.

**Q.** And the “IC50” value?
**A.** Its value is 0.2 µg/mL.

**Q.** B9 was tested. Which “Fold increase in potency relative to 8E2” value did it give?
**A.** The value was 3.3 fold.

**Q.** And the “IC50” value?
**A.** The value was 0.16 µg/mL.

**Q.** For B10, which “Fold increase in potency relative to 8E2” value is on record?
**A.** The value was 0.6 fold.

**Q.** And the “IC50” value?
**A.** The value was 0.6 µg/mL.

**Q.** Which results are given for B11?
**A.** Fold increase in potency relative to 8E2: 0.4 fold; IC50: 0.84 µg/mL

**Q.** For B12, which “Fold increase in potency relative to 8E2” value is on record?
**A.** The value was 1.9 fold.

**Q.** And the “IC50” value?
**A.** Its value is 0.25 µg/mL.

biological target: T1, human IL-11Rα (form used in the assay …); test: Biacore, pH 8.5, 37°C; some heterogeneity observed, an accurate KD difficult to determine

**Q.** Which Kd does the source give for B13 here?
**A.** The Kd was over 9 nM.

Reference: patent US20160031999A1 (CSL, published 2016)
